The results in this text go back to patent US20240066137A1, “NOVEL PROTEIN CONJUGATE, AND USE THEREOF FOR PREVENTING OR TREATING NONALCOHOLIC STEATOHEPATITIS, OBESITY AND DIABETES” (ONEGENE BIOTECHNOLOGY INC., priority 2020, published 2024).

Holding throughout (test): cell-based or functional assay
The target of assay [1] is GLP-1 acceptor (UniProt P43220).
In assay [2] the target is GIP acceptor (UniProt P48546).
For assay [3], the target named is FGFR1/KLB acceptor (UniProt P11362).
Assay [4] concerns the target IL-1RA acceptor (UniProt P14778).

Chain of GLP-1 acceptor (P43220 24-463 limits assumed): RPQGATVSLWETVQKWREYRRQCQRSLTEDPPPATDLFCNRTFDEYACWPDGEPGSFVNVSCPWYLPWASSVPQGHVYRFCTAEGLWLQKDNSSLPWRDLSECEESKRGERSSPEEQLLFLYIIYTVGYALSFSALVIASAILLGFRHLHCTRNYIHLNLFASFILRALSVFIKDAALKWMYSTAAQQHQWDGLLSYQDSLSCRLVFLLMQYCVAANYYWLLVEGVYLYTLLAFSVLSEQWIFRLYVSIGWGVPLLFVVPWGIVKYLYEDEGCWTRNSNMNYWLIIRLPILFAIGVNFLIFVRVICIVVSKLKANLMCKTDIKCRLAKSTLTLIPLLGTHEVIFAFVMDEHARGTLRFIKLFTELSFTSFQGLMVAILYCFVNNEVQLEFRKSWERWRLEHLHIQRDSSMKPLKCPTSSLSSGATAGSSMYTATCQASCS
Chain of Dulaglutide (Fc fusion) (chain): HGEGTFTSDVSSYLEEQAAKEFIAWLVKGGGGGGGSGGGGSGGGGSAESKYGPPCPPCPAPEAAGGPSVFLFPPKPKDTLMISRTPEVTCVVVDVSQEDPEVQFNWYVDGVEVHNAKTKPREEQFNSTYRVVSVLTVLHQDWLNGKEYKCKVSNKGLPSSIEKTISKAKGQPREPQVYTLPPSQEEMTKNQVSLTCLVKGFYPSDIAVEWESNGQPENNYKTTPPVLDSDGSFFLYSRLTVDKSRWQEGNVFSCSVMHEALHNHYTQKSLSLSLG
Chain of rhFGF21 (Native) (Q9NSA1 29-209 limits assumed): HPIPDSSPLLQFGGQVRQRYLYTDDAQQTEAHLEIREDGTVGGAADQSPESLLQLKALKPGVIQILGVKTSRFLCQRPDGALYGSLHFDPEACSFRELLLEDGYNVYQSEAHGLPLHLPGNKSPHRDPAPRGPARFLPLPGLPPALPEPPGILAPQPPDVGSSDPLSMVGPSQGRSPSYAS
Chain of FGFR1/KLB acceptor (P11362 22-822 limits assumed, chain 1 of 2): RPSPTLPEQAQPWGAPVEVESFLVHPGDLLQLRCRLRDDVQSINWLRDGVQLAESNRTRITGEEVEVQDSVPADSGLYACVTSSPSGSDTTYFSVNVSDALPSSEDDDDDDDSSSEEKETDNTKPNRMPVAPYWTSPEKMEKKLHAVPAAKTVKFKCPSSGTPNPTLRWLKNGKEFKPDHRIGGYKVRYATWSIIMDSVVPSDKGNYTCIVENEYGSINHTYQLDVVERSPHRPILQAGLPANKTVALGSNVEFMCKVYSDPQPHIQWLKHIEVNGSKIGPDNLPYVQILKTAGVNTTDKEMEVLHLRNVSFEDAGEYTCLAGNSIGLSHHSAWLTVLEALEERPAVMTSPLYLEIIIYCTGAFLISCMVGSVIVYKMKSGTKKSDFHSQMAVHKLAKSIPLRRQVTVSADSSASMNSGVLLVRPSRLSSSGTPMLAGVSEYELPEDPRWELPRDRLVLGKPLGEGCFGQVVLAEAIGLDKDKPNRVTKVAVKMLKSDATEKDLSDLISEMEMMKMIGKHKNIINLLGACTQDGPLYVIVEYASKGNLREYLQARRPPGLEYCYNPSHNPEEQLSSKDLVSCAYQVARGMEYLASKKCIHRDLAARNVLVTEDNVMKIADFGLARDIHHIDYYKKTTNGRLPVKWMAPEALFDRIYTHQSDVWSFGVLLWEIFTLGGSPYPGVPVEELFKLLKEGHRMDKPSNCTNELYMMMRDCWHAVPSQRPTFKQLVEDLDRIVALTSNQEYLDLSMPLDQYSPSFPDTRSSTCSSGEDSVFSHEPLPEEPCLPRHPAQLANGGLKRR
Chain of FGFR1/KLB acceptor (Q86Z14 whole entry, chain 2 of 2, further chain): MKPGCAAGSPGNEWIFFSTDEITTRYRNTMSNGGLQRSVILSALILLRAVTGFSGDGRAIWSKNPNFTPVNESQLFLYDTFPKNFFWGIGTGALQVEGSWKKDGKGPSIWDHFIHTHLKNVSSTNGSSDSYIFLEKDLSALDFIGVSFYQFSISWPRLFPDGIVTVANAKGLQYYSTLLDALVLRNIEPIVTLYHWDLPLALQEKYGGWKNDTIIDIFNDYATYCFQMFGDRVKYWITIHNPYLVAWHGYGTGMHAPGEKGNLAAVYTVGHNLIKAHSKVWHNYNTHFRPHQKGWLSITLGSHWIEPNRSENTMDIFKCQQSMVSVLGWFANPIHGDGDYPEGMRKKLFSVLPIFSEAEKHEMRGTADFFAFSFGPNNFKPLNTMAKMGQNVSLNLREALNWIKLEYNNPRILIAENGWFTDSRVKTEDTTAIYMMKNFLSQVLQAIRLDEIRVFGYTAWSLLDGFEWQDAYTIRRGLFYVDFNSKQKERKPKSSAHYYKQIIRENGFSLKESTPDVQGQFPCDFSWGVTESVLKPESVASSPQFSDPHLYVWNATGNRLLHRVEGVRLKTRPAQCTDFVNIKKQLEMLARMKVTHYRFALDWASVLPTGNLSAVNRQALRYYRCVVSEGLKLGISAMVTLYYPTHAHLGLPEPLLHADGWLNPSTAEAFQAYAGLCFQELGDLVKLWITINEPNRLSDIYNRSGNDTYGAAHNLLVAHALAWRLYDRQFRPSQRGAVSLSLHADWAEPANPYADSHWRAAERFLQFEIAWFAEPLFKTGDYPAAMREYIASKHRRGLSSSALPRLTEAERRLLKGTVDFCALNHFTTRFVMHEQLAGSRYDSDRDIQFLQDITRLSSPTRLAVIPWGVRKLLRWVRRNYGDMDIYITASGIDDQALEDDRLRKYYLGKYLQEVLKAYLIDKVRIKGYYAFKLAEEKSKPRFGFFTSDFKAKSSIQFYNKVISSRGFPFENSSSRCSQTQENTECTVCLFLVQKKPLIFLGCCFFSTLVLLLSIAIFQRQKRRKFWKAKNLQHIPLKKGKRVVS
Chain of IL-1RA acceptor (P14778 18-569 limits assumed): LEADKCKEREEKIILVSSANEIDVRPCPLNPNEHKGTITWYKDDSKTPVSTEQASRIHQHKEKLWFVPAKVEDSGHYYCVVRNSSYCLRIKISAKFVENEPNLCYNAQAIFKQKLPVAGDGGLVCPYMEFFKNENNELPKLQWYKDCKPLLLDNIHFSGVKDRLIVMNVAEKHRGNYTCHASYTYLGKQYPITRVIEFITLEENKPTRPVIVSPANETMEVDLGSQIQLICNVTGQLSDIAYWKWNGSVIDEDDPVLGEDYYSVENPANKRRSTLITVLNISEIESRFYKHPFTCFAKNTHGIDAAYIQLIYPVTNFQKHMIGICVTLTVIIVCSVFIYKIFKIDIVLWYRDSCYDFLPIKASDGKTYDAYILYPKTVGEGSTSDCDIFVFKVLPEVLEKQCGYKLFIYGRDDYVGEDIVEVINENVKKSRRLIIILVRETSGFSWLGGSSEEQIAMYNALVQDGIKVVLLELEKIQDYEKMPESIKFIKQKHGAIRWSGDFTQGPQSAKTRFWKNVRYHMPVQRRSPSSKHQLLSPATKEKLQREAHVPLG
Chain of GIP acceptor (P48546 22-466 limits assumed): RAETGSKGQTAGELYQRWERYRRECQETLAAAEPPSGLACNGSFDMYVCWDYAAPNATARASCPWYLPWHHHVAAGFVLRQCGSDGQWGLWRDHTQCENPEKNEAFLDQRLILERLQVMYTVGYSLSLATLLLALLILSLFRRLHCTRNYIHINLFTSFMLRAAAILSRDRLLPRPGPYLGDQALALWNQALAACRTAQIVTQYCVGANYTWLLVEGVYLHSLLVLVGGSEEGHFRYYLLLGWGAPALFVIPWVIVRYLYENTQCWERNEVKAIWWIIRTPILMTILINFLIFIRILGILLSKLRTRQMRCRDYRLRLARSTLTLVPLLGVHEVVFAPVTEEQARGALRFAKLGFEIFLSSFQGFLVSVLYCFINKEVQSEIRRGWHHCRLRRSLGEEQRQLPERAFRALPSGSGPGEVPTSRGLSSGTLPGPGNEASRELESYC

In assay [1], Dulaglutide (Fc fusion) gave an EC50, cAMP accumulation assay; Mean of 0.00107 nM; an EC50, cAMP accumulation assay; Stable cell line, n = 6 of 0.00145 nM; an EC50, cAMP accumulation assay; run 1 of 0.00123 nM; an EC50, cAMP accumulation assay; run 2 of 0.0009 nM.

With “GIP(1-39) (from UniProt P09681 52-90) (peptide)”, in assay [2], the EC50, cAMP accumulation assay; Mean was 0.0148 nM; the EC50, cAMP accumulation assay; run 1 is 0.0154 nM; the EC50, cAMP accumulation assay; run 2 was determined as 0.0141 nM.

In assay [3], “rhFGF21 (Native) (from UniProt Q9NSA1 29-209) (ligand)” had an EC50, FGFR1/KLB functional assay; Mean of 0.82 nM; an EC50, FGFR1/KLB functional assay; n = 4 of 1.17 nM; an EC50, FGFR1/KLB functional assay; run 1 of 0.75 nM; an EC50, FGFR1/KLB functional assay; run 2 of 0.88 nM.

With “rhIL-1RA (Native) (from UniProt P18510 26-177) (ligand)”, in assay [4], the IC50, NF-κB reporter gene luciferase assay with IL-1β; Mean came out at 0.0475 nM; the IC50, NF-κB reporter gene luciferase assay with IL-1β; n = 2 amounted to 0.0686 nM; the IC50, NF-κB reporter gene luciferase assay with IL-1β; run 1 came to 0.0399 nM; the IC50, NF-κB reporter gene luciferase assay with IL-1β; run 2 turned out to be 0.0515 nM. Also, in assay [4], the IC50, NF-κB reporter gene luciferase assay with IL-1β; run 3 amounted to 0.0466 nM and the IC50, NF-κB reporter gene luciferase assay with IL-1β; run 4 was 0.0519 nM.
